Results published in patent US20230408517A1 (BIO TECHNE, published 2023).
Where two headings read alike, the source gives them in different places.

Tests used:
[1] = biological target: T1, recombinant monomeric SARS-CoV-2 S1 protein, his-tagged (SARS-CoV-2, UniProt P0DTC2 16-681); assay: flow cytometry, blocking of binding to hACE-2 cells
T1 construct: domain: S1

[2] = biological target: T2, recombinant his-tagged homotrimeric SARS-CoV-2 spike protein (SARS-CoV-2, UniProt P0DTC2 16-1211); assay: as above
[3] = biological target: T3, recombinant monomeric SARS-CoV-1 S1 protein (SARS-CoV-1, UniProt P59594 14-667); assay: as above
[4] = biological target: T4, SARS-CoV spike RBD (R306-F527), C-terminal 6-His (SARS-CoV, UniProt P59594 306-527); assay: as above
[5] = biological target: T1, recombinant monomeric SARS-CoV-2 S1 …; assay: as above; remark: listed apart in the source
[6] = biological target: T2, recombinant his-tagged homotrimeric …; assay: as above; remark: listed apart in the source
[7] = biological target: T3, recombinant monomeric SARS-CoV-1 S1 …; assay: as above; remark: listed apart in the source
[8] = biological target: T4, SARS-CoV spike RBD (R306-F527), …; assay: as above; remark: listed apart in the source
[9] = biological target: T3, recombinant monomeric SARS-CoV-1 S1 …; assay: antigen-down ELISA, coated SARS-CoV-1 S1 titrated, Ab 1 µg/mL
[10] = biological target: T4, SARS-CoV spike RBD (R306-F527), …; assay: antigen-down ELISA, coated SARS-CoV-1 S1 RBD titrated, Ab 1 µg/mL
[11] = biological target: T4, SARS-CoV spike RBD (R306-F527), …; assay: lateral flow NC50, RBD-AuNP vs immobilised ACE2
BSA [12] = biological target: T5, BSA (bovine, UniProt P02769); assay: dipstick, adsorbed protein spots, Ab 10 µg/mL (reference)
T5 construct: also called bovine serum albumin
T5 sequence (P02769 25-607 limits assumed): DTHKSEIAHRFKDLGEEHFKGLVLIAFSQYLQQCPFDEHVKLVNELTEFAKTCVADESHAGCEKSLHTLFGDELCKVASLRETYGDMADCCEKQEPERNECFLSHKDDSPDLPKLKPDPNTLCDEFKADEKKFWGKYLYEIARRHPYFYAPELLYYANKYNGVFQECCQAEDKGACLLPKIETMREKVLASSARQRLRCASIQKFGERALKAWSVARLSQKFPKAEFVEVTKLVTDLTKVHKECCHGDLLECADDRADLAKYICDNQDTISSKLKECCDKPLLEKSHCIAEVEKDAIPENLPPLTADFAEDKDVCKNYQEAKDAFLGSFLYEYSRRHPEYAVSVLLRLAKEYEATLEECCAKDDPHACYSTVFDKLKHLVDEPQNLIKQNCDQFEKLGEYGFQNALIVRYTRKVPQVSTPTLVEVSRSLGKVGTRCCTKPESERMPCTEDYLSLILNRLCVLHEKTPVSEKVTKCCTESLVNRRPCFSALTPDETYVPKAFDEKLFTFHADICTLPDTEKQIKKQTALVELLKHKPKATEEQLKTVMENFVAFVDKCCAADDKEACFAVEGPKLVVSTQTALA

[13] = biological target: T3, recombinant monomeric SARS-CoV-1 S1 …; assay: antigen-down ELISA, coated SARS-CoV-1 S1 titrated, Ab 1 µg/mL; remark: listed apart in the source
[14] = biological target: T4, SARS-CoV spike RBD (R306-F527), …; assay: antigen-down ELISA, coated SARS-CoV-1 S1 RBD titrated, Ab 1 µg/mL; remark: listed apart in the source
[15] = biological target: T3, recombinant monomeric SARS-CoV-1 S1 …; assay: antigen-down ELISA, coated SARS-CoV-1 S1 titrated, Ab 1 µg/mL; remark: listed apart in the source
[16] = biological target: T4, SARS-CoV spike RBD (R306-F527), …; assay: antigen-down ELISA, coated SARS-CoV-1 S1 RBD titrated, Ab 1 µg/mL; remark: listed apart in the source
[17] = biological target: T4, SARS-CoV spike RBD (R306-F527), …; assay: dipstick, adsorbed RBD spots, Ab 10 µg/mL, GAM-AuNP
[18] = biological target: T3, recombinant monomeric SARS-CoV-1 S1 …; assay: antigen-down ELISA, coated SARS-CoV-1 S1 titrated, Ab 1 µg/mL; remark: listed apart in the source
[19] = biological target: T4, SARS-CoV spike RBD (R306-F527), …; assay: dipstick, adsorbed RBD spots, Ab 10 µg/mL, GAM-AuNP; remark: listed apart in the source
[20] = biological target: T3, recombinant monomeric SARS-CoV-1 S1 …; assay: antigen-down ELISA, coated SARS-CoV-1 S1 titrated, Ab 1 µg/mL; remark: listed apart in the source
BSA [21] = biological target: T5, BSA; assay: dipstick, adsorbed protein spots, Ab 10 µg/mL, GAM-AuNP

Row | Binder | percent blocking [1] | percent blocking [2] | percent blocking [3] | percent blocking [4] | percent blocking [5] | percent blocking [6] | percent blocking [7] | percent blocking [8] | other results
1 | 1035752 (antibody, V domains shown) VH: QVQLQQPGAELVRPGASVKMSCKASGYTFTSHSIHWVKQTPGQGLEWIGAVYPGNGDTSYYQKFKGKATLTADKSSSTAYMHLSSLTSEDSAVYYCARDGYSDYYAMDCWGQGTSVTVSS VL: DIVMTQSQKFMSTSVGDRVSVTCKASQNVGTNVAWYQQKPGQSPKALIYSASYRYSGVPDRFTGSGSGTDFTLTINNVQSEDLAEYFCQQYNRYPWTFGGGTKLEIK | 93.3% | 91.8% | 0% | 0% | 93.3% | 91.8% | 0% | 0% | binding result [9]: no binding (tested: 400 ng coated (axis)); binding result [10]: no binding (tested: 400 ng coated (axis))
2 | 1035414 (antibody, V domains shown) VH: QVQLKQSGAELVRPGASVKLSCKTSGYIFTSYWIHWVKQRSGQGLEWIARIYPGTGNTYYNEKFKGKATLTADKSSTTAYMQLSSLKSEDSAVYFCARGEDNLYYYAMDYWGQGTSVTVSS VL: NIVLTQSPASLAVSLGQRATISCRASESVDSYGTSFMHWYQQKPGQPPKLLIYLASNLESGVPASFSGSGSRTDFTLTIDPVEADDAATYYCQQNNEDPWTFGGGTKLEIK | 25.9% | 51.4% | 12% | 0.4% | 25.9% | 51.4% | 12% | 0.4% | –
3 | 1035419 (antibody, V domains shown) VH: QVQLKQSGAELVRPGASVKLSCKTSGYIFTSYWIHWIKQRSGQGLEWIARIYPGTGSTYNNEKFKGKATLTADKSSSTAYMQLSSLKSEDSAVYFCARGEDNLYFYAMDYWGQGTSVTVSS VL: NIVLTQSPASLAVSLGQRATISCRASESVDSYGASFMHWCQQKPGQPPKLLIYLASNLESGVPARFSGSGSRTDFTLTIDPVEADDAATYYCQQNYEDPWTFGGGTKLEIK | 70.1% | 89% | 88.5% | 44.1% | 70.1% | 89% | 88.5% | 44.1% | IC50 [11]: 2.86 µg/mL; binding result (BSA [12]): no binding (tested: 10 µg/mL)
4 | 1035716 (antibody, V domains shown) VH: EVLLQQSGPELVKPGASVKIPCKASGYTFTDYNMDWVKQSHGKSLEWIGDINPNNGGTIYNQKFKGKATLTVDKSSSTAYMELRSLTSEDTAVYYCAREGYGNYFDYWGQGTTLTVSS VL: DILLTQSPAILSVSPGERVSFSCRASQSIGTSIHWYQQRTNGSPRLLIKYASESISGIPSRFSGSGSGTDYTLSINSVESEDIADYYCQQSYSWPTTFGAGTKLELK | 93.8% | 96.5% | 89.5% | 68.7% | 93.8% | 96.5% | 89.5% | 68.7% | –
5 | 1035423 (antibody, V domains shown) VH: EVKLEESGGGLVQPGGSMKLSCTASGFTFSDAWMDWVRQSPEKGLEWVAEIRNKANNHATYYAESVKGRFTISRDDSKSSVYLQMNSLRAEDTGIYYCILFITYAMDYWGQGTSVTVSS VL: DIVLTQSQKFMSTSVGDRVSITCKASQNVRTAVAWYQQKPGQSPKALIYLASNRHTGVPDRFTGSGSGTDFTLTISNVQSEDLADYFCLQHWNYPLTFGSGTKLELK | – | 91.6% | 0% | 0% | 19.7% | 91.6% | 0% | 0% | binding result [13]: no binding (tested: 400 ng coated (axis)); binding result [14]: no binding (tested: 400 ng coated (axis))
6 | 1035433 (antibody, V domains shown) VH: QVQLQQSGPQLVRPGASVKISCKASGYSFTIYWMHWVQQRPGQGLEWIGMIDPSDSETRLNQKFKDKATLTVDKSSSTAYMQLSSPTSEDSAVYYCARRGDYNFDYWGQGTTLTVSS VL: DIVMTQAAPSVPATPGESVSISCRSSKSLLHSNGNTYLYWFLQRPGQSPQLLIFRMSNLASGVPDRFSGSGSGTAFTLRISRVEAEDVGVYYCMQHLEYPYTFGGGTKLEIK | 9.3% | 82.5% | 0% | 0% | 9.3% | 82.5% | 0% | 0% | binding result [15]: no binding (tested: 400 ng coated (axis)); binding result [16]: no binding (tested: 400 ng coated (axis))
7 | 1035224 (antibody, V domains shown) VH: EVQLQQSGAEFVRPGALVKLSCKASGFNIKDDYMHWVKQRPEQGLEWIGWIDPENGNSIYDPKFQGKASITADTSSNTAYLQLSSLTSEDTAVYYCARGEYFGSGSFAYWGQGTLVTVSA VL: QIVLTQSPAIMSASPGEKVTISCSASSSVSYMYWYQQKPGSSPKPWIYRTSNLASGVPARFSGSGSGTSYSLTISSMEAEDAATYYCQQYHSYPYMYTFGGGTKLEIK | 86.6% | 96.6% | 0% | 0% | 86.6% | 96.6% | 0% | 0% | binding result [17]: no binding (tested: 10 µg/mL); binding result [18]: no binding (tested: 400 ng coated (axis))
8 | 1035240 (antibody, V domains shown) VH: QVQLQQSGAELARPGASVKMSCKASGYTFTTYTMHWVKQRPGQGLEWIGYINPSSGYTNYNQKFKDKATLTADTSSSTAYMQLSSLTSEDSAVYYCARRNPLYAMDYWGQGTSVTVSS VL: DIKMTQSPSSMYASLGERVTITCKASQDINSYLNWFQQKPGKSPKTLIYRANRLVDGVPSRFSGSGSGQDYSLTISSLEYEDMGIYYCLQYDEFPYTFGGGTKLEIK | 56.5% | 96.1% | 0% | 0% | 56.5% | 96.1% | 0% | 0% | binding result [19]: no binding (tested: 10 µg/mL); binding result [20]: no binding (tested: 400 ng coated (axis)); binding result (BSA [21]): no binding (tested: 10 µg/mL)
